Measured values reported in paper PMC4947163, “RNA polymerase I–Rrn3 complex at 4.8 Å resolution” (Nature Communications, 2016).
One block for each binder: values may come before it.

B3: Rrn3 (natural protein, S. cerevisiae)
chain: MMAFENTSKRPPQDFVAPIDQKKRKVQFSDSTGLVTLQPEEIKDEVFSAAMYSRFVKSALDDLDKNDSTQIGIIANQVALPSKNPERINDKNLNILLDILSSNINRIESSRGTFLIQSIINFEKWWELPPHTLSKYIYFIKILCSSIPKWWQDVSMILVSCFILPIKQTVCHHDMLKYFLRMIPSSMGFIDTYLAKFFPNKNDTRRKLVNYTSNLLKLRGYCSELGFQIWSLLIEKIISIDVELQNELDELDDDVDDDDLEEVDLEDDDDLDDDSGDDDDENCGNSNEELRSGAADGSQSDSEDMDIIEGMDGTEEYNVELTQGIKELSTKLDSILTLVSTHVEEQVTPESLESGEGVGVFNTLTTLFKTHVLPTYYTRSIQYIMFHVSQQQLELMDSFLVTLIDISFAVNEAAEKKIKSLQYLGSYIARAKKLSRTQIIFVASYLTSWLNRYVIEREEEVDQRGGMERFKHFYAAFQALCYIFCFRHNIFRDTDGNWECELDKFFQRMVISKFNPLKFCNENVMLMFARIAQQESVAYCFSIIENNNNERLRGIIGKADSDKKENSAQANTTSSSWSLATRQQFIDLQSYFPYDPLFLKNYKILMKEYYIEWSEASGEYESDGSDD
notes: Rrn3, Pol I-specific initiation factor, S. cerevisiae; also called Pol I-specific initiation factor Rrn3
B4: Pol I subunit AC40 (natural protein, S. cerevisiae, UniProt P07703 1-335, looked up)
chain: MSNIVGIEYNRVTNTTSTDFPGFSKDAENEWNVEKFKKDFEVNISSLDAREANFDLINIDTSIANAFRRIMISEVPSVAAEYVYFFNNTSVIQDEVLAHRIGLVPLKVDPDMLTWVDSNLPDDEKFTDENTIVLSLNVKCTRNPDAPKGSTDPKELYNNAHVYARDLKFEPQGRQSTTFADCPVVPADPDILLAKLRPGQEISLKAHCILGIGGDHAKFSPVSTASYRLLPQINILQPIKGESARRFQKCFPPGVIGIDEGSDEAYVKDARKDTVSREVLRYEEFADKVKLGRVRNHFIFNVESAGAMTPEEIFFKSVRILKNKAEYLKNCPITQ
notes: Pol I subunit AC40, S. cerevisiae; Stood in the assay as a subunit of the whole Pol I; source: endogenous, purified from yeast as part of Pol I

How the values were obtained:
Experiment in all cases: cryo-EM structure; Pol I incubated with fivefold excess of Rrn3 and CF overnight at 4 °C, SEC in buffer A (150 mM sodium chloride, 5 mM HEPES pH 7.8, 1 mM magnesium chloride, 10 μM zinc chloride, 5 mM dithiothreitol), crosslinked with 1 mM BS3; single-particle reconstruction at 4.8 Å from 63,445 particles; crystal structures fitted as rigid bodies
Settings in all cases: both partners purified
[1] = target: T1, Pol I subunit A49 (S. cerevisiae, UniProt Q01080 1-415)
T1 construct: Pol I subunit A49, S. cerevisiae; Stood in the assay as a subunit of the whole Pol I; source: endogenous, purified from yeast as part of Pol I
T1 sequence (looked up): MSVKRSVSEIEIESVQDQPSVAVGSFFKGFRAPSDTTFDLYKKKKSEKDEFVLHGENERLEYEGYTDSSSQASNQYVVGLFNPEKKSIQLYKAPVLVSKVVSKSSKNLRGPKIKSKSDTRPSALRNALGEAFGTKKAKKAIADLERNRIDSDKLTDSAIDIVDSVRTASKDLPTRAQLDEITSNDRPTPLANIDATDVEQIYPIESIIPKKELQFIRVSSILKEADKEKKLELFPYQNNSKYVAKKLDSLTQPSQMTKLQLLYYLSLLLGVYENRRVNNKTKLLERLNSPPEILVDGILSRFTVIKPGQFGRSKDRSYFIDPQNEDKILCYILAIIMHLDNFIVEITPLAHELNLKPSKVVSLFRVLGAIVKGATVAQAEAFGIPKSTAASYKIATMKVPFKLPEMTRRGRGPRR

[2] = target: B4
[3] = target: B3
[4] = target: T2, Pol I subunit A190 (S. cerevisiae, UniProt P10964 1-1664)
T2 construct: Pol I subunit A190, S. cerevisiae; Stood in the assay as a subunit of the whole Pol I; source: endogenous, purified from yeast as part of Pol I

[5] = target: T3, Pol I subunit A135 (S. cerevisiae, UniProt P22138 1-1203)
T3 construct: Pol I subunit A135, S. cerevisiae; Stood in the assay as a subunit of the whole Pol I; source: endogenous, purified from yeast as part of Pol I
T3 sequence (looked up): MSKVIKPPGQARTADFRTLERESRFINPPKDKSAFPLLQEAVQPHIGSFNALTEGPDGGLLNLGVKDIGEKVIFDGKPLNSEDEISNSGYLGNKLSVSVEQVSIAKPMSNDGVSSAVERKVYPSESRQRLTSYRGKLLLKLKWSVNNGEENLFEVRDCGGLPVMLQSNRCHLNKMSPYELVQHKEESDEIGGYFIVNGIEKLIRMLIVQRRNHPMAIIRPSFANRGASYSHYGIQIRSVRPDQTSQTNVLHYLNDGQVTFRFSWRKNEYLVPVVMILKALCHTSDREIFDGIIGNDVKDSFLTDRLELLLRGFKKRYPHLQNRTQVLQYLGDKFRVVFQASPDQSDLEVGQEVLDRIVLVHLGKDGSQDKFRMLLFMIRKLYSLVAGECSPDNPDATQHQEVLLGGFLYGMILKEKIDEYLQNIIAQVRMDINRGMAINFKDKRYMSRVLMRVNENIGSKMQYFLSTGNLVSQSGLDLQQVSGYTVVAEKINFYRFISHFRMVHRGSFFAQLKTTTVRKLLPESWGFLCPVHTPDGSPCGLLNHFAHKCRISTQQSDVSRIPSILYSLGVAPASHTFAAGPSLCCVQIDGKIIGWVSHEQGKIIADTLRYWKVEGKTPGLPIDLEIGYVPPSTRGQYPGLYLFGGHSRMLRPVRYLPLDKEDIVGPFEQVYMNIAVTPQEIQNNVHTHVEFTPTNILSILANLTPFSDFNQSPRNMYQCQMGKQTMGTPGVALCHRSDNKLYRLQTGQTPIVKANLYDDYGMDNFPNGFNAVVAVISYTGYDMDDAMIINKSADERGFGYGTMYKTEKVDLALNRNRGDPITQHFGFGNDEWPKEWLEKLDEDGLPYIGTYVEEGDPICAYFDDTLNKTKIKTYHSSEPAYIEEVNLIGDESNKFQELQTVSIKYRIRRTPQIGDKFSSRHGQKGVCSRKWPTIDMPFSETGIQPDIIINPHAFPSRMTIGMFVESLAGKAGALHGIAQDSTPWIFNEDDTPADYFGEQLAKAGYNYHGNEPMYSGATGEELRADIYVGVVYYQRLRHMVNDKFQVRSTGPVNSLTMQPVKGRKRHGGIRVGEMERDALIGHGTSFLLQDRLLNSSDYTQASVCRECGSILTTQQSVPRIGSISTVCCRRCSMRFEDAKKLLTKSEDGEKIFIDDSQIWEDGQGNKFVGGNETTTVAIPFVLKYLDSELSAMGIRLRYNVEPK

T2 sequence (P10964 whole entry): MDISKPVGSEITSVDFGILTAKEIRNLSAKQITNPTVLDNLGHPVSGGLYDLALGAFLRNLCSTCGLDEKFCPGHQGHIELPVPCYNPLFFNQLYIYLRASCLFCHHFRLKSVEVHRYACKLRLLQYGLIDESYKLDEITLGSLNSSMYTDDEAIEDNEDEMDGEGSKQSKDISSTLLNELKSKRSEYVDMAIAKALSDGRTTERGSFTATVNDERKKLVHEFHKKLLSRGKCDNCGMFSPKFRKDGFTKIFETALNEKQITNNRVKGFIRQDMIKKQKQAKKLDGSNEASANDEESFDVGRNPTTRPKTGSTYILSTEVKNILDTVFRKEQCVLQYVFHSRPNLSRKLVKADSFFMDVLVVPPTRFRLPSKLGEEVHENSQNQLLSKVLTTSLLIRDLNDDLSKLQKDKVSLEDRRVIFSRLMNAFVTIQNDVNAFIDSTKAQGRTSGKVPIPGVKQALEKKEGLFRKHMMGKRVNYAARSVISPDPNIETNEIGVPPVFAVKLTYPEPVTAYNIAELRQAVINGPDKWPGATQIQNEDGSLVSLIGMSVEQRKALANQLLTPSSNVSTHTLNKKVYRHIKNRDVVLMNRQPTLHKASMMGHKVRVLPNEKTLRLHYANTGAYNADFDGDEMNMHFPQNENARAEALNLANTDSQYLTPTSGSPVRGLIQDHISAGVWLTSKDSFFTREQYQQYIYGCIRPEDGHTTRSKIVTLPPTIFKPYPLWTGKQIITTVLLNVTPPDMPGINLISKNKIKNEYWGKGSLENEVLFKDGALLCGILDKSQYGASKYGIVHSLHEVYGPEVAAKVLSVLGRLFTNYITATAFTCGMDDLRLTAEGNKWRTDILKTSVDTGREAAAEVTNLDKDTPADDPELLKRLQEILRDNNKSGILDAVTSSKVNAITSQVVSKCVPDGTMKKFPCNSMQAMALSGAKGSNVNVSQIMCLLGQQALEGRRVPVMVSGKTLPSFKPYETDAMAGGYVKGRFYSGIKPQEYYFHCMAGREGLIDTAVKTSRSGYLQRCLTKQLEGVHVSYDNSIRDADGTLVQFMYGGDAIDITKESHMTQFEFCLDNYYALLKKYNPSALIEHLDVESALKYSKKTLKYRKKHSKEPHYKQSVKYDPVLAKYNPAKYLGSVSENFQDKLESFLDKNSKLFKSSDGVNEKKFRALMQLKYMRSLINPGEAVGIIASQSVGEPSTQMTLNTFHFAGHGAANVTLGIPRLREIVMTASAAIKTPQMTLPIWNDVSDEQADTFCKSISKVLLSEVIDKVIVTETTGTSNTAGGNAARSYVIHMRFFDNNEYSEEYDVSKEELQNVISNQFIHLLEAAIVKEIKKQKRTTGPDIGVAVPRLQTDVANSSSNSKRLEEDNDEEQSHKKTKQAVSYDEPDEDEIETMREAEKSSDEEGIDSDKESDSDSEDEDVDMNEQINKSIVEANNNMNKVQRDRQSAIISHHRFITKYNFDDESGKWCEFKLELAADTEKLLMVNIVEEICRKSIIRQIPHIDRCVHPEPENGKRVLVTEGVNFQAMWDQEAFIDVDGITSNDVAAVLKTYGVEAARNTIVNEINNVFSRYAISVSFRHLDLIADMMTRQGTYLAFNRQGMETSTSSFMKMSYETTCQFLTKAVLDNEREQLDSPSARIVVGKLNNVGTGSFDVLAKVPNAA

binding result [1]: binds
B1: Pol I subunit A34.5 (natural protein, S. cerevisiae, UniProt P47006 1-233, looked up)
chain: MSKLSKDYVSDSDSDDEVISNEFSIPDGFKKCKHLKNFPLNGDNKKKAKQQQVWLIKFPSNVDISKLKSLPVDFESSTTMTIDKHDYKIMDDTDIESSLTQDNLSNMTLLVPSESKESLKIASTAKDNAPLQFDKVFSVSETAKIPAIDYSKVRVPRKDVPKVEGLKLEHFATGYDAEDFHVAEEVKENKKEPKKRSHHDDEEESSEKKKKKKEKREKREKKDKKDKKKKHRD
notes: Pol I subunit A34.5, S. cerevisiae; Stood in the assay as a subunit of the whole Pol I; source: endogenous, purified from yeast as part of Pol I

binding result [2]: binds | binding result [3]: binds
B2: Pol I subunit AC19 (natural protein, S. cerevisiae, UniProt P28000 1-142, looked up)
chain: MTEDIEQKKTATEVTPQEPKHIQEEEEQDVDMTGDEEQEEEPDREKIKLLTQATSEDGTSASFQIVEEDHTLGNALRYVIMKNPDVEFCGYSIPHPSENLLNIRIQTYGETTAVDALQKGLKDLMDLCDVVESKFTEKIKSM
notes: Pol I subunit AC19, S. cerevisiae; Stood in the assay as a subunit of the whole Pol I; source: endogenous, purified from yeast as part of Pol I

Second part, the binder before the results:

Binder: B3
binding result [4]: binds | binding result [5]: binds

Binder: B4
binding result [3]: binds
